Experimental data published in patent US20250027090.

Key:
[1] = biological target: T1, thrombin (native human beta-thrombin) (Homo sapiens) (UniProt P00734+P00734); experiment: EMSA; conditions: for Kd: selection buffer, 10% glycerol, room temperature; for binding signal: 1 uM thrombin
[2] = biological target: thrombin (native bovine alpha-thrombin) (Bos taurus) (UniProt P00735+P00735); experiment: ITC; conditions: L-DNA (all nucleotides)
[3] = biological target: T1, thrombin (native human beta-thrombin) (Homo sapiens); experiment: ITC; conditions: L-DNA (all nucleotides); physiological buffer pH 7.4, 25 C
[4] = biological target: T1, thrombin (native human beta-thrombin) (Homo sapiens); experiment: inhibition; conditions: L-DNA (all nucleotides); R0 pool, no inhibition up to 8 uM

ACGGAACGCGTTTCAAGACTACCGTGTTTGTTCCGT [Cy5-L-9-1t aptamer]
Kd ([1]; L-DNA (all nucleotides)): 21 nM

ACGGAACGCGTTTCAAGACTACCGTGTTTGTTCCGT [L-9-1t aptamer]
Kd ([2]; ~26-fold weaker than human thrombin): 1030 nM
Kd [3]: 39 nM

CGGATCCAGTTACGGAACGCGTTTCAAGACTACCGTGTTTGTTCCGTTCATTCAGTAAGCTTCGG [L-9-1 aptamer]
Kd [3]: 29 nM

CGGATCCAGTTACGGANNNNNNNNNNNNNNNNNNNNNNNNNNNNNNTTCATTCAGTAAGCTTCGG [R0 L-DNA library pool]
IC50 [4]: > 8000 nM

CGGATCCAGTTACGGANNNNNNNNNNNNNNNNNNNNNNNNNNNNNNTTCATTCAGTAAGCTTCGG [R6 D-DNA pool]
binding signal [1]: 70 % bound

CGGATCCAGTTACGGANNNNNNNNNNNNNNNNNNNNNNNNNNNNNNTTCATTCAGTAAGCTTCGG [R9 L-DNA pool]
binding signal ([1]; L-DNA (all nucleotides), 200 nM pool): 70 % bound

CGGATCCAGTTACGGATGAACTTGTTGAAACCCAACGGGAGAATCGTTCATTCAGTAAGCTTCGG [L-9-2 aptamer]
Kd [3]: 168 nM

CGGATCCAGTTACGGATGAACTTGTTGAAACCCAACGGGAGCCTCGTTCATTCAGTAAGCTTCGGTGG [L-13 aptamer]
Kd [3]: 22 nM

GATGAACTTGTTGAAACCCAACGGGAGAATCGTTCATT [Cy5-L-9-2t aptamer]
Kd ([1]; L-DNA (all nucleotides)): 355 nM

GATGAACTTGTTGAAACCCAACGGGAGAATCGTTCATT [L-9-2t aptamer]
Kd ([2]; ~1.7-fold weaker than human thrombin): 426 nM
Kd [3]: 251 nM

GATGAACTTGTTGAAACCCAACGGGAGCCTCGTTCATT [Cy5-L-13t aptamer]
Kd ([1]; L-DNA (all nucleotides)): 28 nM

GATGAACTTGTTGAAACCCAACGGGAGCCTCGTTCATT [L-13t aptamer]
Kd [3]: 34 nM
